Experiments:
[1] = biological target: Rat RGMa (rat, UniProt D4A188 170-424); test: BIAcore; Ab captured via anti-hIgG Fc, antigen injected
Experimental: (§1) The potency data correlates with the affinity data (see Table 5). The affinity of h5F9.23 affinity matured Abs towards human RGMa, rat RGMa, and human RGMc were determined by BIAcore analysis (Table 5). Testing Abs were captured to the surface of a CM5 chip via anti-hIgG Fc Ab, and serially diluted antigens were injected. Association and dissociation rates were monitored for 5 and 10 min respectively. Sensorgrams were fitted by global analysis using the BIAevaluation 4.0.1 software for a 1:1 Langmuir binding model. The equilibrium dissociation constants (KD) were calculated from kinetic rate constants (off rate kd and on rate ka): KD=kd/ka.

[2] = biological target: T1, human RGMa (human, UniProt Q96B86 48-422, limits assumed, biotinylated in the indirect ELISA); test: as above
T1 construct: also called hRGMa; biotin hRGMa
T1 sequence: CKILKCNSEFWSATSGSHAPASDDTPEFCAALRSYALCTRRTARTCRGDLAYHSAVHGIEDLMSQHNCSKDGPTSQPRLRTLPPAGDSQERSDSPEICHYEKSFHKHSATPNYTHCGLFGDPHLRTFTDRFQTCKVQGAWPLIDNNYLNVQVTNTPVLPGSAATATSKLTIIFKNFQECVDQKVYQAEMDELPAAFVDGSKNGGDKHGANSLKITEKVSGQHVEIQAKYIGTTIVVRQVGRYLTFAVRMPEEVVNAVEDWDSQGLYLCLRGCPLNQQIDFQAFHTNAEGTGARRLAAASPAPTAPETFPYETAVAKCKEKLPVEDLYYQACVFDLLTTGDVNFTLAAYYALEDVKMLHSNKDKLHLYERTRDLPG
Experimental: as §1

Sequence of Rat RGMa (D4A188 entry or part of it): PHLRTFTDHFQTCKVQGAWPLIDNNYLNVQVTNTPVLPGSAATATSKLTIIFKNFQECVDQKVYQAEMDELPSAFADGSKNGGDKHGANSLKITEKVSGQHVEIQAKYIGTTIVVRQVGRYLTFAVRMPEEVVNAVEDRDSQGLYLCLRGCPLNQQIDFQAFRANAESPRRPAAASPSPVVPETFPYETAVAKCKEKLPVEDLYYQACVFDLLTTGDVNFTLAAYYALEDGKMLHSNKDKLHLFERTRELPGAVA

B1: humanized antibody 5F9.23 (antibody, V domains shown)
VH: EVQLVESGGGLVQPGGSLRLSCAASGFTFSNYGMNWIRQAPGKGLEWIGMIYYDSSEKHYADSVKGRFTISRDNSKNTLYLQMNSLRAEDTAVYYCAKGTTPDYWGQGTMVTVSS
VL: DVVLTQSPLSLPVTLGQPASISCRSSQSLEYSDGYTFLEWFQQRPGQSPRLLIYEVSNRFSGVPDRFSGSGSGTDFTLKISRVEAEDVGVYYCFQATHDPLTFGQGTKLEIKR
notes: also called h5F9.23; H5F9.23
In the case of B1, the Kd [1] is reported as 2.1 nM, the koff [1] is reported as 0.0017 s⁻¹ and the kon [1] is reported as 830000 M⁻¹ s⁻¹. The kon [2] was 6e+06 M⁻¹ s⁻¹.
